Earlier results, collected in publication PMC12756081.
pKd: −log10 of the molar value.

Columns and labels:
[1] = target: IL-18Rα/IL-18Rβ (Homo sapiens) (UniProt Q13478); conditions: cited from earlier work
[2] = target: IL-18Rα (Homo sapiens) (UniProt Q13478); conditions: cited from earlier work
Chain of IL-18Rα (Homo sapiens) (Q13478 19-541): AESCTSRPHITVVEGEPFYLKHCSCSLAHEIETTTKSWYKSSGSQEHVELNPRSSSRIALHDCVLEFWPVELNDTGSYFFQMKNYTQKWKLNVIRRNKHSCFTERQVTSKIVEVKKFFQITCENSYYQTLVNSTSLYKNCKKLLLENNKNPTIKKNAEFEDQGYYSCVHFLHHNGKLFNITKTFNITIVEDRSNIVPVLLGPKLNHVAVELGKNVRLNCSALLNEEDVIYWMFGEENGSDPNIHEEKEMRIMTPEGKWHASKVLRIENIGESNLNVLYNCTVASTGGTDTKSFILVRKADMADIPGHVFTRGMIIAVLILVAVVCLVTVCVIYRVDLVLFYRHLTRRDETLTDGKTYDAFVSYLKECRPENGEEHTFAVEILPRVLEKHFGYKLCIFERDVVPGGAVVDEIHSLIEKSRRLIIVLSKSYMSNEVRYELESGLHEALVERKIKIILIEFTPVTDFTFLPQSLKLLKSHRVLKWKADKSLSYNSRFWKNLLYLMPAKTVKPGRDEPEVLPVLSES

Chain of IL-18 (Q14116 37-193): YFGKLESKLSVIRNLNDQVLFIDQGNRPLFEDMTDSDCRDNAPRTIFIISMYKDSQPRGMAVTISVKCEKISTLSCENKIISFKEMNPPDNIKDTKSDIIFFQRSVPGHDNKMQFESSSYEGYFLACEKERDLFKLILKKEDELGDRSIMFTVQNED
Chain of IL-18Rα/IL-18Rβ (Homo sapiens) (Q13478 19-541, chain 1 of 2): as the sequence (Q13478 19-541) above
Chain of IL-18Rα/IL-18Rβ (Homo sapiens) (O95256 20-599, chain 2 of 2, further chain): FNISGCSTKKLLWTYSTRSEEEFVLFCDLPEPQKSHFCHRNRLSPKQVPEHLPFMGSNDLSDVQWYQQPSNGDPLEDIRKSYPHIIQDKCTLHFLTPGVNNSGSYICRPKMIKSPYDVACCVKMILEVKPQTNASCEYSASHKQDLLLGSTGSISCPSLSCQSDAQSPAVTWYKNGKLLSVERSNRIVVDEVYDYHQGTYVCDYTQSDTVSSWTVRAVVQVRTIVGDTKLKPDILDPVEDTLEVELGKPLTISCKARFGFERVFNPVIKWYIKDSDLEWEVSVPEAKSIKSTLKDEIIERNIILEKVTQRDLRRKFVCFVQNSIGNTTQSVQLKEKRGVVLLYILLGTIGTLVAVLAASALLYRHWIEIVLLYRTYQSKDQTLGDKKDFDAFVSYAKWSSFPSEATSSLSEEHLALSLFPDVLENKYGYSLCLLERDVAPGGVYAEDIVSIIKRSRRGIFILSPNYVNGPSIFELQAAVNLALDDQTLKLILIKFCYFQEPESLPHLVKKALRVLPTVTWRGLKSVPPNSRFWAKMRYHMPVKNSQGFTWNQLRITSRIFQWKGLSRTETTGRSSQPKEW

Substance: IL-18 (from UniProt Q14116)
- pKd [1]: 9.00
- pKd [2]: 7.52
